Measurements: article PMC6690836 (Angewandte Chemie (International ed. in English), 2016)

Target: the molecule itself
Test: crystal structure

B1: Water soluble chlorophyll binding protein from cauliflower (CaWSCP), recombinant, assembled with Chl a (natural protein)
chain: REQVKDSNGNPVKRGAKYFIQPAKSNGGGLVPAAINILPFCPLGITQTLLPYQPGLPVSFGYEPVIVGTDYIYTSTTINIEFRSEIWPVCNELSKLWAVDVSSSAAKEPAIIIGGERTAPNSLFKIEEATGAHTYKLTTSSGTVGTIPGPWLGAPQLIATNDDAKTLFVKFVKVDDDAT
stoichiometry N: 4
